The Km is the concentration of substrate that gives half-maximal velocity.

Substrate in the data set: O=c1[nH]c(=O)n([C@H]2C[C@H](O)[C@@H](COP(=O)(O)O)O2)cc1CO
The experiment in a line: purified protein. Format: biochemical, Homo sapiens.

B1: 2′-Deoxynucleoside 5′-monophosphate N-glycosidase 1 (DNPH1) (Homo sapiens) (protein)
chain: AAAMVPGRSESWERGEPGRPALYFCGSIRGGREDRTLYERIVSRLRRFGTVLTEHVAAAELGARGEEAAGGDRLIHEQDLEWLQQADVVVAEVTQPSLGVGYELGRAVAFNKRILCLFRPQSGRVLSAMIRGAADGSRFQVWDYEEGEVEALLDRYFEADPPGQVAASPDPTT
Take B1: the Michaelis constant (Km) was 6.3 ± 0.5 µM.

These data come from PMC10334339.
